From publication PMC8860586, “Vimentin binds to G-quadruplex repeats found at telomeres and gene promoters”

What was measured:
Vimentin [1] = target: T1, Vimentin (Homo sapiens, UniProt P08670 2-466); assay: EMSA; 150 mM KCl, pH 8.4; two complexes; 5 mM Tris-HCl pH 8.4, 150 mM KCl; FA 5 nM DNA at 25 C; EMSA 500 nM DNA + 8 uM vimentin, 1 h room temperature, 1.5% agarose 0.5x TBE + 10 mM KCl, run at 4 C; settings: protein: commercial; chain copies: 4; three adjacent G4s
Vimentin [2] = target: T1, Vimentin; assay: EMSA; 150 mM KCl, pH 8.4; 5 mM Tris-HCl pH 8.4, 150 mM KCl; FA 5 nM DNA at 25 C; EMSA 500 nM DNA + 8 uM vimentin, 1 h room temperature, 1.5% agarose 0.5x TBE + 10 mM KCl, run at 4 C; settings: protein: commercial, chain copies: 4
Vimentin [3] = target: T1, Vimentin; assay: fluorescence anisotropy; 150 mM KCl, pH 8.4, 25 C; tetramer concentration, 1:1 fit; 5 mM Tris-HCl pH 8.4, 150 mM KCl; FA 5 nM DNA at 25 C; EMSA 500 nM DNA + 8 uM vimentin, 1 h room temperature, 1.5% agarose 0.5x TBE + 10 mM KCl, run at 4 C; settings: protein: commercial; chain copies: 4; label: 5'-6-FAM; two adjacent G4s
Vimentin [4] = target: T1, Vimentin; assay: EMSA; 150 mM KCl, pH 8.4; Job plot max 0.1 DNA fraction, two tetramers per DNA; 5 mM Tris-HCl pH 8.4, 150 mM KCl; FA 5 nM DNA at 25 C; EMSA 500 nM DNA + 8 uM vimentin, 1 h room temperature, 1.5% agarose 0.5x TBE + 10 mM KCl, run at 4 C; settings: protein: commercial; chain copies: 4; four adjacent G4s
Vimentin [5] = target: T1, Vimentin; assay: EMSA; no KCl, pH 8.4; 5 mM Tris-HCl pH 8.4, 150 mM KCl; FA 5 nM DNA at 25 C; EMSA 500 nM DNA + 8 uM vimentin, 1 h room temperature, 1.5% agarose 0.5x TBE + 10 mM KCl, run at 4 C; settings: protein: commercial; chain copies: 4; unfolded single strand

T1 sequence (P08670 2-466): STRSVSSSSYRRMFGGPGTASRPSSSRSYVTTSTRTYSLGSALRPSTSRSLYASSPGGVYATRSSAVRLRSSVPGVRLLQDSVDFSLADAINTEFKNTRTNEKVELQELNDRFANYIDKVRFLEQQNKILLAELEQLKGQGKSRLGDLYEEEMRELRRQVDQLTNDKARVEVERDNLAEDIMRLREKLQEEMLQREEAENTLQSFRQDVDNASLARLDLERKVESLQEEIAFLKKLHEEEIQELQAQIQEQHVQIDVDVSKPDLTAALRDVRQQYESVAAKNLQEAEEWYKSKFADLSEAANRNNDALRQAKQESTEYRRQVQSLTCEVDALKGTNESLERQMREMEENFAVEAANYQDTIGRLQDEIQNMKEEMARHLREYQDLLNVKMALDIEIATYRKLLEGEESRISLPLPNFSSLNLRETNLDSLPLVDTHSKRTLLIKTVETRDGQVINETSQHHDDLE

B1: 3TEL (structured_DNA)
DNA: TTAGGGTTAGGGTTAGGGTTAGGGTTAGGGTTAGGGTTAGGGTTAGGGTTAGGGTTAGGGTTAGGGTTAGGG
Vimentin [1]
  binding result: binds

## GGCGAGGAGGGGCGTGGCCGGC (structured_DNA) [KIT*]
Vimentin [2]; single G4
  binding result: no binding

## TTAGGGTTAGGGTTAGGGTTAGGG (structured_DNA) [TEL]
Vimentin [2]; single G4
  binding result: no binding

## TTAGGGTTAGGGTTAGGGTTAGGGTTAGGGTTAGGGTTAGGGTTAGGG (structured_DNA) [FAM-2TEL]
Vimentin [3]
  Kd: 25.7 ± 2.4 nM

B2: hTERT (structured_DNA)
DNA: GGGGAGGGGCTGGGAGGGCCCGGAGGGGGCTGGGCCGGGGACCCGGGAGGGGTCGGGACGGGGCGGGG
Vimentin [2]; G4 repeat
  binding result: binds

B3: 4TEL (structured_DNA)
DNA: TTAGGGTTAGGGTTAGGGTTAGGGTTAGGGTTAGGGTTAGGGTTAGGGTTAGGGTTAGGGTTAGGGTTAGGGTTAGGGTTAGGGTTAGGGTTAGGG
Vimentin [4]
  binding result: binds

## CGGGCGGGCGCGAGGGAGGGGAGGCGAGGAGGGGCGTGGCCGGC (structured_DNA) [KIT2KIT*]
Vimentin [2]; two adjacent G4s
  binding result: binds

## TGGCCCTGGTGGGCGGAGGCAAAGGGGGAGCCAGGGGCGGAGAAAGGGT (ssDNA) [G-rich noG4]
Vimentin [5]
  binding result: binds

B4: ILPR (structured_DNA)
DNA: ACAGGGGTGTGGGGACAGGGGTGTGGGGACAGGGGTGTGGGGACAGGGGTGTGGGG
Vimentin [2]; G4 repeat
  binding result: binds

## CGGGCGGGCGCGAGGGAGGGG (structured_DNA) [KIT2]
Vimentin [2]; single G4
  binding result: no binding
